From patent publication US8748480B2, “Methods for treating opioid tolerance” (priority 2005, dated 2014)

What was measured:
Format in all cases: binding
[1] = molecular target: T1, Gβ1γ2 Tyr59Ala (Rattus norvegicus, UniProt P54311, Y59A); assay: Phage ELISA, b-βγ mutant Tyr59Ala; settings: alanine-substituted Tyr59, C-Terminal Interface; mean ± SD
T1 construct: made in house; host or cells: Sf9 insect cells (baculovirus)
Text: (§1) Wild-type Gβ1 and Gβ1 mutants were made in the baculovirus vector PDW464 which encodes a biotinylation site at a lysine upstream of the amino terminus of Gβ1 (Goubaeva, et al. (2003) supra). Mutants were generated by overlap extension PCR using standard protocols. The wild-type and mutant Gβ1 constructs consisted of a 20 amino acid biotin acceptor peptide (BAP) sequence fused in-frame with the amino-terminus of rat Gβ1 subunit. When coexpressed with biotin holoenzyme synthetase (BirA) in Sf9 cells, the Gβ1 subunit becomes covalently biotinylated in vivo at the Specific lysine acceptor residue in the BAP.
Phage ELISA assays used to assess peptide binding to wild-type and mutant b-βγ were performed according to standard methods (Smrcka and Scott (2002) Methods Enzymol. 344:557-76). Briefly, 1 μg streptavidin was immobilized in the well of a […] overnight at 4° C. The wells were blocked with 100 μL of 2% bovine serum albumin (BSA) in Tris-buffered saline (TBS) for 1 hour at 4° C. followed by three washes of 1×TBS/0.5% TWEEN®. […] The wells were washed, followed by the addition of 1×10^6 to 1×10^10 phage particles and incubated at 4° C. for 3 hours. The wells were then washed six times with TBS/0.5% TWEEN® followed by addition of 40 μL of 1:5000 dilution of anti-M13 antibody (Pharmacia, Uppsala, Sweden) and incubated at room temperature for 1 hour. The wells were washed, followed by the addition of 40 μL of (2,2′-Azino-bis(3-ethylbenzthiazoline)-6-sulfonic acid (ABTS) and the colorimetric reaction was monitored at 405 nm. Non-specific binding was subtracted for each reading.
(§2) Both assays were then carried out with Gβ1γ2 heterodimers containing mutations in the Gβ1 subunit.
The nine peptides were selected to represent the different consensus groups of peptides previously identified (See Scott et al. (2001) supra; Table 9) and to compare binding characteristics within and between consensus groups. […] For the purposes of present disclosure, any substitution that decreased the binding to less than 20% of the wild-type binding was considered to be a critical binding contact for that peptide.

[2] = molecular target: T2, Gβ1γ2 Asp246Ser (Rattus norvegicus, UniProt P54311, D246S); assay: Phage ELISA, b-βγ mutant Asp246Ser; settings: Asp246 mutant (Asp246Ser), N-Terminal Interface; mean ± SD
T2 construct: made in house; host or cells: Sf9 insect cells (baculovirus)
T2 sequence (P54311 whole entry D246S): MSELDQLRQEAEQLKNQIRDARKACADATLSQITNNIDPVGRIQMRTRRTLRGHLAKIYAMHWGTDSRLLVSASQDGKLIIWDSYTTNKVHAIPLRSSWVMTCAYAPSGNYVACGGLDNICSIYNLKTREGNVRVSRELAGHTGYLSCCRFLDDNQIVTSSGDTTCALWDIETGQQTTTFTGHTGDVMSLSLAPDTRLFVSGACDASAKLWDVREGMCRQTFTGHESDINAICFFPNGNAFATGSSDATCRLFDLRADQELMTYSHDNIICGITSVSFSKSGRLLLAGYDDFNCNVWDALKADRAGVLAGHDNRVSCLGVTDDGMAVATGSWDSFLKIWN
T2 sequence (P63212 2-68 partner limits assumed): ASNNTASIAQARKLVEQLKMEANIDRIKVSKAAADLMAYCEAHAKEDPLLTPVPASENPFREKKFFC
Text: as §1, with “BAP. Using this approach, 1-2 mg protein of purified protein can be obtained per liter of Sf9 insect cells. As 45 ng of protein is used in the phage ELISA assay, a single purification is sufficient for 10,000 to 30,000 binding assays.” for “BAP.”
(§3) Phage ELISA assays used to assess peptide binding to wild-type and mutant b-βγ were performed according to standard methods (Smrcka and Scott (2002) Methods Enzymol. 344:557-76). Briefly, 1 μg streptavidin was immobilized in the well of a […] overnight at 4° C. The wells were blocked with 100 μL of 2% bovine serum albumin (BSA) in Tris-buffered saline (TBS) for 1 hour at 4° C. followed by three washes of 1×TBS/0.5% TWEEN®. Forty μL of 25 nM bGβ1γ2 in TBS/0.5% TWEEN® was added to each well and incubated at 4° C. for 1.5 hour. The wells were washed, followed by the addition of 1×10^6 to 1×10^10 phage particles and incubated at 4° C. for 3 hours. The wells were then washed six times with TBS/0.5% TWEEN® followed by addition of 40 μL of 1:5000 dilution of anti-M13 antibody (Pharmacia, Uppsala, Sweden) and incubated at room temperature for 1 hour. The wells were washed, followed by the addition of 40 μL of (2,2′-Azino-bis(3-ethylbenzthiazoline)-6-sulfonic acid (ABTS) and the colorimetric reaction was monitored at 405 nm. Non-specific binding was subtracted for each reading.
as §2
(§4) The nine peptides were selected to represent the different consensus groups of peptides previously identified (See Scott et al. (2001) supra; Table 9) and to compare binding characteristics within and between consensus groups. […] As disclosed herein, the binding signal obtained in the ELISA assay was correlated to a loss in affinity by comparing the results to behavior of the peptide in a solution based assay. […] For the purposes of present disclosure, any substitution that decreased the binding to less than 20% of the wild-type binding was considered to be a critical binding contact for that peptide.

[3] = molecular target: T3, Gβ1γ2 Asn230Ala (Rattus norvegicus, UniProt P54311, N230A); assay: Phage ELISA, b-βγ mutant Asn230Ala; settings: alanine-substituted Asn230, N-Terminal Interface; mean ± SD
T3 construct: made in house; host or cells: Sf9 insect cells (baculovirus)
T3 sequence (P54311 whole entry N230A): as the sequence (P54311 whole entry D246S) above, with N230A, S246D counted along it
T3 sequence (P63212 2-68 partner limits assumed): as the sequence (P63212 2-68 partner limits assumed) above
Text: as §1, with “BAP. Using this approach, 1-2 mg protein of purified protein can be obtained per liter of Sf9 insect cells. As 45 ng of protein is used in the phage ELISA assay, a single purification is sufficient for 10,000 to 30,000 binding assays.” for “BAP.”
as §3, §2, §4

[4] = molecular target: T4, Gβ1γ2 Tyr145Ala (Rattus norvegicus, UniProt P54311, Y145A); assay: Phage ELISA, b-βγ mutant Tyr145Ala; settings: alanine-substituted Tyr145, N-Terminal Interface; mean ± SD
T4 construct: made in house; host or cells: Sf9 insect cells (baculovirus)
T4 sequence (P54311 whole entry Y145A): as the sequence (P54311 whole entry D246S) above, with Y145A, S246D counted along it
T4 sequence (P63212 2-68 partner limits assumed): as the sequence (P63212 2-68 partner limits assumed) above
Text: as §1, with “BAP. Using this approach, 1-2 mg protein of purified protein can be obtained per liter of Sf9 insect cells. As 45 ng of protein is used in the phage ELISA assay, a single purification is sufficient for 10,000 to 30,000 binding assays.” for “BAP.”
as §3, §2, §4

[5] = molecular target: T5, Gβ1γ2 Met101Ala (Rattus norvegicus, UniProt P54311, M101A); assay: Phage ELISA, b-βγ mutant Met101Ala; settings: alanine-substituted Met101, C-Terminal Interface; mean ± SD
T5 construct: made in house; host or cells: Sf9 insect cells (baculovirus)
T5 sequence (P54311 whole entry M101A): as the sequence (P54311 whole entry D246S) above, with M101A, S246D counted along it
T5 sequence (P63212 2-68 partner limits assumed): as the sequence (P63212 2-68 partner limits assumed) above
Text: as §1, with “BAP. Using this approach, 1-2 mg protein of purified protein can be obtained per liter of Sf9 insect cells. As 45 ng of protein is used in the phage ELISA assay, a single purification is sufficient for 10,000 to 30,000 binding assays.” for “BAP.”
as §3, §2, §4

[6] = molecular target: T6, Gβ1γ2 Arg314Ala (Rattus norvegicus, UniProt P54311, R314A); assay: Phage ELISA, b-βγ mutant Arg314Ala; settings: alanine-substituted Arg314, Indirect; mean ± SD
T6 construct: made in house; host or cells: Sf9 insect cells (baculovirus)
T6 sequence (P54311 whole entry R314A): as the sequence (P54311 whole entry D246S) above, with S246D, R314A counted along it
T6 sequence (P63212 2-68 partner limits assumed): as the sequence (P63212 2-68 partner limits assumed) above
Text: as §1, with “BAP. Using this approach, 1-2 mg protein of purified protein can be obtained per liter of Sf9 insect cells. As 45 ng of protein is used in the phage ELISA assay, a single purification is sufficient for 10,000 to 30,000 binding assays.” for “BAP.”
as §3, §2, §4

[7] = molecular target: T7, Gβ1γ2 Trp99Ala (Rattus norvegicus, UniProt P54311, W99A); assay: Phage ELISA, b-βγ mutant Trp99Ala; settings: alanine-substituted Trp99, C-Terminal Interface; mean ± SD
T7 construct: made in house; host or cells: Sf9 insect cells (baculovirus)
T7 sequence (P54311 whole entry W99A): as the sequence (P54311 whole entry D246S) above, with W99A, S246D counted along it
T7 sequence (P63212 2-68 partner limits assumed): as the sequence (P63212 2-68 partner limits assumed) above
Text: as §1, with “BAP. Using this approach, 1-2 mg protein of purified protein can be obtained per liter of Sf9 insect cells. As 45 ng of protein is used in the phage ELISA assay, a single purification is sufficient for 10,000 to 30,000 binding assays.” for “BAP.”
as §3, §2, §4

[8] = molecular target: T8, Gβ1γ2 His311Ala (Rattus norvegicus, UniProt P54311, H311A); assay: Phage ELISA, b-βγ mutant His311Ala; settings: alanine-substituted His311, Indirect; mean ± SD
T8 construct: made in house; host or cells: Sf9 insect cells (baculovirus)
T8 sequence (P54311 whole entry H311A): as the sequence (P54311 whole entry D246S) above, with S246D, H311A counted along it
T8 sequence (P63212 2-68 partner limits assumed): as the sequence (P63212 2-68 partner limits assumed) above
Text: as §1, with “BAP. Using this approach, 1-2 mg protein of purified protein can be obtained per liter of Sf9 insect cells. As 45 ng of protein is used in the phage ELISA assay, a single purification is sufficient for 10,000 to 30,000 binding assays.” for “BAP.”
as §3, §2, §4

[9] = molecular target: T9, Gβ1γ2 Trp332Ala (Rattus norvegicus, UniProt P54311, W332A); assay: Phage ELISA, b-βγ mutant Trp332Ala; settings: alanine-substituted Trp332, C-Terminal Interface; mean ± SD
T9 construct: made in house; host or cells: Sf9 insect cells (baculovirus)
T9 sequence (P54311 whole entry W332A): as the sequence (P54311 whole entry D246S) above, with S246D, W332A counted along it
T9 sequence (P63212 2-68 partner limits assumed): as the sequence (P63212 2-68 partner limits assumed) above
Text: as §1, with “BAP. Using this approach, 1-2 mg protein of purified protein can be obtained per liter of Sf9 insect cells. As 45 ng of protein is used in the phage ELISA assay, a single purification is sufficient for 10,000 to 30,000 binding assays.” for “BAP.”
as §3, §2, §4

[10] = molecular target: T10, Gβ1γ2 Asp186Ala (Rattus norvegicus, UniProt P54311, D186A); assay: Phage ELISA, b-βγ mutant Asp186Ala; settings: alanine-substituted Asp186, N-Terminal Interface; mean ± SD
T10 construct: made in house; host or cells: Sf9 insect cells (baculovirus)
T10 sequence (P54311 whole entry D186A): as the sequence (P54311 whole entry D246S) above, with D186A, S246D counted along it
T10 sequence (P63212 2-68 partner limits assumed): as the sequence (P63212 2-68 partner limits assumed) above
Text: as §1, with “BAP. Using this approach, 1-2 mg protein of purified protein can be obtained per liter of Sf9 insect cells. As 45 ng of protein is used in the phage ELISA assay, a single purification is sufficient for 10,000 to 30,000 binding assays.” for “BAP.”
as §3, §2, §4

[11] = molecular target: T11, Gβ1γ2 Met188Ala (Rattus norvegicus, UniProt P54311, M188A); assay: Phage ELISA, b-βγ mutant Met188Ala; settings: alanine-substituted Met188, Shared; mean ± SD
T11 construct: made in house; host or cells: Sf9 insect cells (baculovirus)
T11 sequence (P54311 whole entry M188A): as the sequence (P54311 whole entry D246S) above, with M188A, S246D counted along it
T11 sequence (P63212 2-68 partner limits assumed): as the sequence (P63212 2-68 partner limits assumed) above
Text: as §1, with “BAP. Using this approach, 1-2 mg protein of purified protein can be obtained per liter of Sf9 insect cells. As 45 ng of protein is used in the phage ELISA assay, a single purification is sufficient for 10,000 to 30,000 binding assays.” for “BAP.”
as §3, §2, §4

[12] = molecular target: T12, Gβ1γ2 Lys57Ala (Rattus norvegicus, UniProt P54311, K57A); assay: Phage ELISA, b-βγ mutant Lys57Ala; settings: alanine-substituted Lys57, C-Terminal Interface; mean ± SD
T12 construct: made in house; host or cells: Sf9 insect cells (baculovirus)
T12 sequence (P54311 whole entry K57A): as the sequence (P54311 whole entry D246S) above, with K57A, S246D counted along it
T12 sequence (P63212 2-68 partner limits assumed): as the sequence (P63212 2-68 partner limits assumed) above
Text: as §1, with “BAP. Using this approach, 1-2 mg protein of purified protein can be obtained per liter of Sf9 insect cells. As 45 ng of protein is used in the phage ELISA assay, a single purification is sufficient for 10,000 to 30,000 binding assays.” for “BAP.”
as §3, §2, §4

[13] = molecular target: T13, Gβ1γ2 Leu117Ala (Rattus norvegicus, UniProt P54311, L117A); assay: Phage ELISA, b-βγ mutant Leu117Ala; settings: alanine-substituted Leu117, C-Terminal Interface; mean ± SD
T13 construct: made in house; host or cells: Sf9 insect cells (baculovirus)
T13 sequence (P54311 whole entry L117A): as the sequence (P54311 whole entry D246S) above, with L117A, S246D counted along it
T13 sequence (P63212 2-68 partner limits assumed): as the sequence (P63212 2-68 partner limits assumed) above
Text: as §1, with “BAP. Using this approach, 1-2 mg protein of purified protein can be obtained per liter of Sf9 insect cells. As 45 ng of protein is used in the phage ELISA assay, a single purification is sufficient for 10,000 to 30,000 binding assays.” for “BAP.”
as §3, §2, §4

T1 sequence (P54311 whole entry Y59A): as the sequence (P54311 whole entry D246S) above, with Y59A, S246D counted along it
T1 sequence (P63212 2-68 partner limits assumed): as the sequence (P63212 2-68 partner limits assumed) above

Sequence	% of Wild-Type Signal, Tyr59 [1] [%]	% of Wild-Type Signal, Asp246 [2] [%]	% of Wild-Type Signal, Asn230 [3] [%]	% of Wild-Type Signal, Tyr145 [4] [%]	% of Wild-Type Signal, Met101 [5] [%]	% of Wild-Type Signal, Arg314 [6] [%]	% of Wild-Type Signal, Trp99 [7] [%]	% of Wild-Type Signal, His311 [8] [%]	% of Wild-Type Signal, Trp332 [9] [%]	% of Wild-Type Signal, Asp186 [10] [%]	% of Wild-Type Signal, Met188 [11] [%]	% of Wild-Type Signal, Lys57 [12] [%]	% of Wild-Type Signal, Leu117 [13] [%]
LCSKAYLLLGQTC [2F]	−2.0 ± 9.5	0.6 ± 2.5	27.6 ± 19.1	0.1 ± 6.5	6.0 ± 5.1	2.4 ± 3.9	32.6 ± 26.3	23.6 ± 46.0	−1.5 ± 3.6	2.4 ± 3.5	8.5 ± 5.2	−4.5 ± 6.2	2.1 ± 5.5
SCEKRLGVRSCT [C5]	73.8 ± 16.6	56.3 ± 4.1	33.5 ± 7.2	16.7 ± 4.8	47.8 ± 18.9	76.5 ± 6.7	39.0 ± 3.8	58.7 ± 14.4	3.2 ± 3.7	45.7 ± 5.2	97.2 ± 14.2	5.6 ± 5.3	28.5 ± 5.2
SCEKRYGIEFCT [C4]	7.6 ± 9.6	35.8 ± 7.4	11.5 ± 6.0	4.4 ± 3.8	61.2 ± 30.9	1.4 ± 1.0	67.0 ± 15.2	36.5 ± 8.3	1.7 ± 3.0	51.3 ± 15.0	127.5 ± 22.4	−0.2 ± 1.9	18.4 ± 7.1
SCGHGLKVQSTIGACA [3C]	8.5 ± 6.4	2.0 ± 2.7	4.1 ± 4.4	2.7 ± 10.5	−4.2 ± 5.5	8.3 ± 3.6	−0.5 ± 5.9	30.5 ± 18.9	−0.3 ± 1.7	35.0 ± 17.2	−5.7 ± 5.6	3.6 ± 7.5	10 ± 13.3
